By stoichiometry N is commonly meant a count of units in the complex or per binding partner.

Experiment [1] addresses C13S-mutant rGlEB1 (G. lamblia). Nature of the experiment: SEC; about 800 µg rGlEB1 in PBS on Superdex 75 10/300 GL; size markers 75, 29, 14 and 6 kDa; monomer to dimer. For orientation: SEC sorts molecules by how far they enter the pores of the column.
The target of experiment [2] is C46S-mutant rGlEB1 (G. lamblia). As to the kind of experiment: SDS-PAGE of SEC fractions without DTT; fractions eluted from SEC separated by SDS-PAGE without DTT; shows disulfide-linked dimers only.
Experiment [3] has as its target full-length recombinant Giardia lamblia end-binding 1 protein, rGlEB1_(1–238) (G. lamblia). Nature of the experiment: SEC; about 800 µg rGlEB1 in PBS on Superdex 75 10/300 GL; size markers 75, 29, 14 and 6 kDa; monomer to dimer.
The target is the same in experiment [4]. As to the kind of experiment: SDS-PAGE of SEC fractions without DTT; fractions eluted from SEC separated by SDS-PAGE without DTT; shows disulfide-linked dimers only.
The target in experiment [5] is truncated recombinant G. lamblia EB1, rGlEB1_(1–184) (CH domain and linker) (G. lamblia). Nature of the experiment: SEC; about 800 µg rGlEB1 in PBS on Superdex 75 10/300 GL; size markers 75, 29, 14 and 6 kDa; monomer to dimer.

C13S-mutant rGlEB1 (natural protein) yielded a stoichiometry N in experiment [1] of 2.
As to C46S-mutant rGlEB1 (natural protein), in experiment [2], the stoichiometry N amounted to 2.
For “full-length recombinant Giardia lamblia end-binding 1 protein, rGlEB1_(1–238) (natural protein)”, the stoichiometry N in experiment [3] and in experiment [4] was 2 each time.
As to “truncated recombinant G. lamblia EB1, rGlEB1_(1–184) (CH domain and linker) (domain or fragment)”, the stoichiometry N in experiment [5] is 2.

Source of the values: paper PMC4020936.
